{"source": "the RNAGym collection of RNA variant scans (doi:10.1021/acssynbio.7b00057)", "parents": {"B1": {"name": "Pistol ribozyme (parent)", "chain": "GGGUCGUUGUUCCAUAAUCGCGUGGAUAUGGCACGCAAGUUUCUACCGGGCACCGUAAAUGUCCGACUGGAGCCGUUCGGGCGGCUAUAAACAGACCUCAGGCCCGAAGCGUGGCGGCACCUGCCGCCGGUGGUAAAAAAGAUCGGAAGAGCACACGUCU"}}, "data": [{"variants_of": "B1", "test": "aptazyme ON/OFF ratio, guanine; higher = stronger switching; co-transcriptional cleavage with and without guanine", "values": [{"variant": "GGGUCGGCAGUCGAUAAUCGCGUGGAUAUGGCACGCAAGUUUCUACCGGGCACCGUAAAUGUCCGACUGGAGCCGUUCGGGCGGCUAUAAACAGACCUCAGGCCCGAAGCGUGGCGGCACCUGCCGCCGGUGGUAAAAAAGAUCGGAAGAGCACACGUCU", "aptazyme ON/OFF ratio": 1.19}, {"variant": "GGGUCGGCAGUCUAUAAUCGCGUGGAUAUGGCACGCAAGUUUCUACCGGGCACCGUAAAUGUCCGACUGGAGCCGUUCGGGCGGCUAUAAACAGACCUCAGGCCCGAAGCGUGGCGGCACCUGCCGCCGGUGGUAAAAAAGAUCGGAAGAGCACACGUCU", "aptazyme ON/OFF ratio": 1.26}, {"variant": "GGGUCGGCAGUCAAUAAUCGCGUGGAUAUGGCACGCAAGUUUCUACCGGGCACCGUAAAUGUCCGACUGGAGCCGUUCGGGCGGCUAUAAACAGACCUCAGGCCCGAAGCGUGGCGGCACCUGCCGCCGGUGGUAAAAAAGAUCGGAAGAGCACACGUCU", "aptazyme ON/OFF ratio": 1.28}, {"variant": "GGGUCGGCAGAACAUAAUCGCGUGGAUAUGGCACGCAAGUUUCUACCGGGCACCGUAAAUGUCCGACUGGAGCCGUUCGGGCGGCUAUAAACAGACCUCAGGCCCGAAGCGUGGCGGCACCUGCCGCCGGUGGUAAAAAAGAUCGGAAGAGCACACGUCU", "aptazyme ON/OFF ratio": 1.11}, {"variant": "GGGUCGGCAGAUCAUAAUCGCGUGGAUAUGGCACGCAAGUUUCUACCGGGCACCGUAAAUGUCCGACUGGAGCCGUUCGGGCGGCUAUAAACAGACCUCAGGCCCGAAGCGUGGCGGCACCUGCCGCCGGUGGUAAAAAAGAUCGGAAGAGCACACGUCU", "aptazyme ON/OFF ratio": 1.06}, {"variant": "GGGUCGGCAGAGCAUAAUCGCGUGGAUAUGGCACGCAAGUUUCUACCGGGCACCGUAAAUGUCCGACUGGAGCCGUUCGGGCGGCUAUAAACAGACCUCAGGCCCGAAGCGUGGCGGCACCUGCCGCCGGUGGUAAAAAAGAUCGGAAGAGCACACGUCU", "aptazyme ON/OFF ratio": 1.08}, {"variant": "GGGUCGGCAGCAUAUAAUCGCGUGGAUAUGGCACGCAAGUUUCUACCGGGCACCGUAAAUGUCCGACUGGAGCCGUUCGGGCGGCUAUAAACAGACCUCAGGCCCGAAGCGUGGCGGCACCUGCCGCCGGUGGUAAAAAAGAUCGGAAGAGCACACGUCU", "aptazyme ON/OFF ratio": 1.19}, {"variant": "GGGUCGGCAGCAGAUAAUCGCGUGGAUAUGGCACGCAAGUUUCUACCGGGCACCGUAAAUGUCCGACUGGAGCCGUUCGGGCGGCUAUAAACAGACCUCAGGCCCGAAGCGUGGCGGCACCUGCCGCCGGUGGUAAAAAAGAUCGGAAGAGCACACGUCU", "aptazyme ON/OFF ratio": 1.16}, {"variant": "GGGUCGGCAGCAAAUAAUCGCGUGGAUAUGGCACGCAAGUUUCUACCGGGCACCGUAAAUGUCCGACUGGAGCCGUUCGGGCGGCUAUAAACAGACCUCAGGCCCGAAGCGUGGCGGCACCUGCCGCCGGUGGUAAAAAAGAUCGGAAGAGCACACGUCU", "aptazyme ON/OFF ratio": 1.15}, {"variant": "GGGUCGGCAGUGCAUAAUCGCGUGGAUAUGGCACGCAAGUUUCUACCGGGCACCGUAAAUGUCCGACUGGAGCCGUUCGGGCGGCUAUAAACAGACCUCAGGCCCGAAGCGUGGCGGCACCUGCCGCCGGUGGUAAAAAAGAUCGGAAGAGCACACGUCU", "aptazyme ON/OFF ratio": 1.13}, {"variant": "GGGUCGGCAGUUCAUAAUCGCGUGGAUAUGGCACGCAAGUUUCUACCGGGCACCGUAAAUGUCCGACUGGAGCCGUUCGGGCGGCUAUAAACAGACCUCAGGCCCGAAGCGUGGCGGCACCUGCCGCCGGUGGUAAAAAAGAUCGGAAGAGCACACGUCU", "aptazyme ON/OFF ratio": 1.35}, {"variant": "GGGUCGGCAGAUGAUAAUCGCGUGGAUAUGGCACGCAAGUUUCUACCGGGCACCGUAAAUGUCCGACUGGAGCCGUUCGGGCGGCUAUAAACAGACCUCAGGCCCGAAGCGUGGCGGCACCUGCCGCCGGUGGUAAAAAAGAUCGGAAGAGCACACGUCU", "aptazyme ON/OFF ratio": 1.09}, {"variant": "GGGUCGGCAGAUAAUAAUCGCGUGGAUAUGGCACGCAAGUUUCUACCGGGCACCGUAAAUGUCCGACUGGAGCCGUUCGGGCGGCUAUAAACAGACCUCAGGCCCGAAGCGUGGCGGCACCUGCCGCCGGUGGUAAAAAAGAUCGGAAGAGCACACGUCU", "aptazyme ON/OFF ratio": 1.09}, {"variant": "GGGUCGGCAGAUUAUAAUCGCGUGGAUAUGGCACGCAAGUUUCUACCGGGCACCGUAAAUGUCCGACUGGAGCCGUUCGGGCGGCUAUAAACAGACCUCAGGCCCGAAGCGUGGCGGCACCUGCCGCCGGUGGUAAAAAAGAUCGGAAGAGCACACGUCU", "aptazyme ON/OFF ratio": 1.13}, {"variant": "GGGUCGGCAGUUAAUAAUCGCGUGGAUAUGGCACGCAAGUUUCUACCGGGCACCGUAAAUGUCCGACUGGAGCCGUUCGGGCGGCUAUAAACAGACCUCAGGCCCGAAGCGUGGCGGCACCUGCCGCCGGUGGUAAAAAAGAUCGGAAGAGCACACGUCU", "aptazyme ON/OFF ratio": 1.12}, {"variant": "GGGUCGGCAGUUGAUAAUCGCGUGGAUAUGGCACGCAAGUUUCUACCGGGCACCGUAAAUGUCCGACUGGAGCCGUUCGGGCGGCUAUAAACAGACCUCAGGCCCGAAGCGUGGCGGCACCUGCCGCCGGUGGUAAAAAAGAUCGGAAGAGCACACGUCU", "aptazyme ON/OFF ratio": 1.1}, {"variant": "GGGUCGGCAGUUUAUAAUCGCGUGGAUAUGGCACGCAAGUUUCUACCGGGCACCGUAAAUGUCCGACUGGAGCCGUUCGGGCGGCUAUAAACAGACCUCAGGCCCGAAGCGUGGCGGCACCUGCCGCCGGUGGUAAAAAAGAUCGGAAGAGCACACGUCU", "aptazyme ON/OFF ratio": 1.26}, {"variant": "GGGUCGGCAGUGUAUAAUCGCGUGGAUAUGGCACGCAAGUUUCUACCGGGCACCGUAAAUGUCCGACUGGAGCCGUUCGGGCGGCUAUAAACAGACCUCAGGCCCGAAGCGUGGCGGCACCUGCCGCCGGUGGUAAAAAAGAUCGGAAGAGCACACGUCU", "aptazyme ON/OFF ratio": 1.15}]}]}
